Assay results published in patent US20130165328, “APPARATUS AND METHODS FOR KINETIC ANALYSIS AND DETERMINATION OF NUCLEIC ACID SEQUENCES” (ILLUMINA, INC., published 2013).

B1: 6-FAM hairpin-DNA template (structured_DNA)
DNA: CGTTAGTAACCTCGAGGCAACTTAGCCTCGAG
B2: 19/36 mer primer/template duplex (FAM-labelled) (dsDNA)
DNA 1: GCTTGCACAGGGCCTCGAC
DNA 2: CGTTAGTAAGGTCGAGGCCCTGTGCAAGC

What was measured:
[1] = molecular target: KlenTaq polymerase (UniProt P19821 P19821:280-832); assay: stopped-flow observed k1; 600 nM enzyme, 100 uM dGTP, 50 mM NaCl, 2 mM MgCl2, pH 7.5; settings: label: 6-FAM on internal T; hairpin
Procedure: The pre-steady kinetic analysis of Klenow or KlenTaq polymerase for incorporating the cognate nucleotide (dGTP) was monitored following the mixing of 6-carboxyfluorescein (6-FAM) dye label hairpin-DNA template with the enzyme (600 nM) and nucleotide (100 μM) in a reaction buffer containing 50 mM Tris-HCl, pH 7.5, 300 mM NaCl (or 50 mM NaCl in the KlenTaq reaction), 0.5 mM Dithiothreitol and 5 mM MgCl₂ (or 2 mM MgCl₂ in the KlentTaq reaction) in an Applied Photophysics SX20 stopped-flow spectrometer. The 6-FAM hairpin-DNA template was: 5′-[…].[…](6-FAM) CGAG-3′ (SEQ ID NO: 5).

[2] = molecular target: BSU DNA polymerase I (Bacillus subtilis, UniProt O34996 O34996:1-880, second Ser after 6xHis tag replaced by Cys (in tag)); assay: stopped-flow fluorescein quenching; correct dCTP signal rises and mismatch dATP signal falls with NaCl 62.5-375 mM; 10 mM MgSO4; settings: label: fluorescein-dT in primer, 5 bases from incorporation site; primer/template with 5' template overhang
Text: Theoretically, it was possible to use an enzyme simulation that predicts the feasibility of correct vs. mismatch base discrimination using enzyme-DNA binding kinetics. […] Rapid mixing is generally achieved using a fast delivery and mixing system to minimize the contribution of the diffusion constants to the overall access of the polymerase to the DNA templates. To determine the validity of the theoretical predictions for base discrimination based on DNA binding kinetics, correct (dCTP) and mismatch (dATP) nucleotides were rapidly mixed with BSU polymerase and FAM labeled 19/36 mer in the presence of various NaCl concentrations with a stopped flow instrument. Pre-steady state correct and mismatch nucleotide kinetic responses of polymerase/DNA binding were made by monitoring the extent of induced fluorescence quenching response. Correct and mismatch nucleotide responses were determined from the stopped flow kinetic raw traces (FIG. 23). The traces were normalized and the maximum fluorescence change was determined and subsequently, correlated with the extent of synchronized enzyme-DNA binding. As [NaCl] was increased and the nucleotide concentration was held constant, the fluorescence change for the correct nucleotide (leftmost bar in each pair of bars in FIG. 24B) was increased, while the response for the mismatch (rightmost bar in each pair of bars in FIG. 24B) was decreased. […]

KlenTaq polymerase, sequence (P19821 280-832, one chain of several): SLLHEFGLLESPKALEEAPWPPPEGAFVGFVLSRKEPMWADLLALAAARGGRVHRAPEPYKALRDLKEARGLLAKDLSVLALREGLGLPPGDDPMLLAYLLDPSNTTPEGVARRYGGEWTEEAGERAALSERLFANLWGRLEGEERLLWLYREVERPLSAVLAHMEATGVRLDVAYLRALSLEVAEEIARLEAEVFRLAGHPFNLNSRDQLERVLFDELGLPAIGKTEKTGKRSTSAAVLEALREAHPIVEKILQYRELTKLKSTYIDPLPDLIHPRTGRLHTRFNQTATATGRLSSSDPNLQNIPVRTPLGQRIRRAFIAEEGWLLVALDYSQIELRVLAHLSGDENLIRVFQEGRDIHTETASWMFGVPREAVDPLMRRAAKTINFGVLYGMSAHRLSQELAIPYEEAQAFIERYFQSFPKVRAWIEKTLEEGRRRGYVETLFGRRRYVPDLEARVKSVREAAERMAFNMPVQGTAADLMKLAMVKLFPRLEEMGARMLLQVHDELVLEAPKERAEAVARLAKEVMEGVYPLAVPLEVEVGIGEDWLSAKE

| Binder | binding result [1] | binding result [2] |
| --- | --- | --- |
| B1 | binds |  |
| B2 |  | binds |
